The values below come from US20120156803A1.

Assay [1] deals with BBMVs prepared from Cry1Fa-resistant O. nubilalis (rECB) larvae (Ostrinia nubilalis). Description: pull-down competition on rECB BBMVs; ^125I-Cry1Fa remaining bound with 1000 nM unlabeled Cry1Fa competitor.
The target of assay [2] is S. frugiperda (FAW) BBMV proteins / receptor(s) (brush border membrane vesicles from wild type, Cry1Fa-sensitive larvae) (Spodoptera frugiperda). Description: pull-down competition on FAW BBMVs; ^125I-Cry1Fa remaining bound with 1000 nM unlabeled Cry1Fa competitor.
Assay [3] has as its target O. nubilalis (ECB) BBMV proteins (brush border membrane vesicles from wild type, Cry1Fa-sensitive larvae) (Ostrinia nubilalis). Description: pull-down competition on ECB BBMVs; ^125I-Cry1Fa remaining bound with 1000 nM unlabeled Cry1Fa competitor.
The target is the same in assay [4]. Description: pull-down assay on ECB BBMVs, no competitor, phosphor-imaging densitometry.
For assay [5], the target named is BBMVs prepared from Cry1Fa-resistant S. frugiperda (rFAW) larvae (Spodoptera frugiperda). Briefly: pull-down assay on rFAW BBMVs, no competitor, phosphor-imaging densitometry.
In assay [6] the target is O. nubilalis (ECB) BBMV proteins (brush border membrane vesicles from wild type, Cry1Fa-sensitive larvae) (Ostrinia nubilalis). Briefly: saturation binding of radioligand (0.5-20 nM) to 150 ug/mL ECB BBMV proteins, centrifugation and gamma counting.
Assay [7] addresses S. frugiperda (FAW) BBMV proteins / receptor(s) (brush border membrane vesicles from wild type, Cry1Fa-sensitive larvae) (Spodoptera frugiperda). Briefly: pull-down assay on FAW BBMVs, no competitor, phosphor-imaging densitometry.
Assay [8] deals with BBMVs prepared from Cry1Fa-resistant O. nubilalis (rECB) larvae (Ostrinia nubilalis). Description: pull-down assay on rECB BBMVs, no competitor, phosphor-imaging densitometry.
In assay [9] the target is S. frugiperda (FAW) BBMV proteins / receptor(s) (brush border membrane vesicles from wild type, Cry1Fa-sensitive larvae) (Spodoptera frugiperda). Briefly: pull-down competition on FAW BBMVs; ^125I-Cry1Fa remaining bound with 1000 nM unlabeled Cry1Ab competitor.
For assay [10] the target is unchanged. Briefly: pull-down competition on FAW BBMVs; ^125I-Cry1Fa remaining bound with 1000 nM unlabeled Cry1Ca competitor.

As to “non-radioactive (unlabeled) Cry1Fa core toxin protein (trypsin-truncated) (from UniProt Q03746 1-603) (ligand)”, the Relative Amounts of radio-iodinated Cry1Fa Protein Bound in assay [1] was 51%; in assay [2], 0%; in assay [3], 31%.
Turning to “^125I radiolabeled fluorescein-Cry1Fa core toxin protein (trypsin-truncated) (from UniProt Q03746 1-603) (ligand)”, the Relative Amounts of radio-iodinated Cry1Fa Protein Bound in [4] came to 100%; in [5], 10%; in assay [7], 100%; in assay [8], 64%. Also, the Bmax in assay [6] stood at 37 fmol/mg. Besides, the dissociation constant Kd in [6] is 11 nM.
On to “Cry1Ab core toxin protein (from UniProt P0A370 29-607) (ligand)”, for which, in assay [9], the Relative Amounts of radio-iodinated Cry1Fa Protein Bound is -4%.
As for “Cry1Ca core toxin protein (from UniProt P0A373) (ligand)”, the Relative Amounts of radio-iodinated Cry1Fa Protein Bound in assay [10] amounted to 50%.
